Target: T1, AtSR1 (CAMTA3) CG-1 domain (Arabidopsis thaliana, UniProt Q8GSA7 1-153)
T1 sequence: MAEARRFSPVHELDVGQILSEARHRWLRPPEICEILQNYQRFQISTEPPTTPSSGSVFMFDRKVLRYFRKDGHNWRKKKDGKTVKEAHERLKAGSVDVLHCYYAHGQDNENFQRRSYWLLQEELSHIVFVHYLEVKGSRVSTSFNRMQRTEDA
Assay: EMSA; EMSA; buffer, salt, pH and temperature not given in the material
Settings: protein: recombinant; tags: 6His (pET32a-derived plasmid)

B1: DWF4 promoter fragment (dsDNA)
DNA 1: ATAAGCCTATACGCGCTCAAAGTATG
DNA 2: CATACTTTGAGCGCGTATAGGCTTAT
B1: binds.

B2: At5g41750-2 promoter fragment (dsDNA)
DNA 1: TCATTGGTCCTCGCGACTATAACAAA
DNA 2: TTTGTTATAGTCGCGAGGACCAATGA
B2: binds.

B3: At5g41750-1 promoter fragment (dsDNA)
DNA 1: TCTTTAGTCGTCGCGAATTCTTTGGG
DNA 2: CCCAAAGAATTCGCGACGACTAAAGA
B3: no binding.

B4: IAA19 promoter fragment (dsDNA)
DNA 1: AAAAAGCACGACGCGGTGCCATTACT
DNA 2: AGTAATGGCACCGCGTCGTGCTTTTT
B4: binds.

B5: PDF1.4 promoter fragment (dsDNA)
DNA 1: CGTGAAAGTCACGCGCCAAGAACAAA
DNA 2: TTTGTTCTTGGCGCGTGACTTTCACG
B5: binds.

B6: IAA1-2 promoter fragment (dsDNA)
DNA 1: AAGAAAGAAGCCGCGTCCAAAATCTT
DNA 2: AAGATTTTGGACGCGGCTTCTTTCTT
B6: binds.

B7: NPR1 promoter fragment (dsDNA)
DNA 1: AAAGTAAAAAACGCGGAAAGCAATAA
DNA 2: TTATTGCTTTCCGCGTTTTTTACTTT
B7: binds.

B8: ADR1 promoter fragment (dsDNA)
DNA 1: ATTAATCAAAACGCGTAAAAAGAGTA
DNA 2: TACTCTTTTTACGCGTTTTGATTAAT
B8: binds.

B9: SAUR41 promoter fragment (dsDNA)
DNA 1: AACGAAGGGCCCGCGCTGTACTCGAT
DNA 2: ATCGAGTACAGCGCGGGCCCTTCGTT
B9: no binding.

From PMC6032152, “Ca2+/Calmodulin-Dependent AtSR1/CAMTA3 Plays Critical Roles in Balancing Plant Growth and Immunity”
